This assay deals with high-affinity binding sites and low-affinity sites for VEGF165 on the SK-MEL-28 cell line (human (endogenous in SK-MEL-28)). Put plainly: radioligand binding; radio-receptor assay with [125I]-labeled VEGF165 on SK-MEL-28 cells; two classes of sites; data not shown.

With “Recombinant Human VEGF165 (from UniProt P15692-4 1-191) (ligand)”, the KD, high-affinity sites was determined as 130 pM and the KD, low-affinity sites was 4.1 nM.

These data come from article PMC9550759.
